Data as given in paper PMC10404244, “Control of motor landing and processivity by the CAP-Gly domain in the KIF13B tail” (Nature Communications, 2023).

What was measured:
[1] = molecular target: T1, tyrosinated microtubules polymerized from purified porcine brain tubulin (porcine, UniProt P02550 1-451); Q767L7 1-444, part of the tubulin labelled with biotin NHS ester and Dylight-405 (or Alexa647) NHS ester (chain and residues not told) | part of the tubulin labelled with biotin NHS ester and Dylight-405 (or …); experiment: TIRF microscopy microtubule-binding assay; KIF5B constructs on tyrosinated and detyrosinated microtubules in the presence of ADP (Supplementary Fig. 5G); read-out not told
T1 construct: alpha-tubulin of porcine brain, mixture of isotypes and PTMs, approximately 50% tyrosinated; beta-tubulin of porcine brain, mixture of isotypes and PTMs; A polymer of alpha/beta-tubulin dimers, held on the coverslip through biotin-streptavidin; also called WT (tyrosinated) microtubules; tyrosinated MTs; source: purified from porcine brain (high-molarity PIPES procedure), polymerized with GTP, …

[2] = molecular target: the molecule itself; experiment: mass photometry; lower concentration(s) of the construct (KIF13B^Δtail: the lower of two; KIF13B^CG: low and intermediate), HP buffer pH 7.0, room temperature; monomer to dimer
[3] = molecular target: T2, tyrosinated microtubules polymerized from recombinant human α1A/βIII tubulin (human, UniProt Q71U36 1-451; Q13509 1-450); experiment: TIRF microscopy microtubule-binding assay (standard deviation map); differentially labelled tyrosinated and detyrosinated taxol microtubules held by biotin-streptavidin in the same chamber, sfGFP motors in solution, 2 mM ATP, HP assay buffer pH 7.0; conditions: both partners purified
T2 construct: human alpha-tubulin isotype α1A, fully tyrosinated; human beta-tubulin isotype βIII; Plasmids (pFAST-Dual) were gifts from A. Roll-Mecak; also called recombinant human tubulin (fully tyrosinated); not shown: His tag (from the HisTrap purification)

[4] = molecular target: the molecule itself; experiment: two-colour single-molecule TIRF microscopy; sfGFP- and mScarlet (I)-tagged KIF13BK414A co-expressed and purified together (molar ratio ~1:5 mScarlet (I): sfGFP), seen on immobilised tyrosinated and CPA-treated detyrosinated microtubules; 2 mM ATP or 2 mM ADP

T2 sequence (Q71U36 whole entry, chain 1 of 2): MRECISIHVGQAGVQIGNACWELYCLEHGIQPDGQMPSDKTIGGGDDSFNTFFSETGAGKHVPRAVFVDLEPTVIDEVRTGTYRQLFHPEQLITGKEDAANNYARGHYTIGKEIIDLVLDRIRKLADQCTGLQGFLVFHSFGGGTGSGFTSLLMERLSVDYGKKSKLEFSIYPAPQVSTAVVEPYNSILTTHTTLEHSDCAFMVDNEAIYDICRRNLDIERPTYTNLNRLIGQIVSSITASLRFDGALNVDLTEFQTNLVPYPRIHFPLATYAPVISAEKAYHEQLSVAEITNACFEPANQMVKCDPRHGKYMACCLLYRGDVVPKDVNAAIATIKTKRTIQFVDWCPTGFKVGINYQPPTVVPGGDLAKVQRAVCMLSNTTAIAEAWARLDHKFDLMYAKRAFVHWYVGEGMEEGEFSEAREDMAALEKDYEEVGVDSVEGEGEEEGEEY
T2 sequence (Q13509 whole entry, chain 2 of 2): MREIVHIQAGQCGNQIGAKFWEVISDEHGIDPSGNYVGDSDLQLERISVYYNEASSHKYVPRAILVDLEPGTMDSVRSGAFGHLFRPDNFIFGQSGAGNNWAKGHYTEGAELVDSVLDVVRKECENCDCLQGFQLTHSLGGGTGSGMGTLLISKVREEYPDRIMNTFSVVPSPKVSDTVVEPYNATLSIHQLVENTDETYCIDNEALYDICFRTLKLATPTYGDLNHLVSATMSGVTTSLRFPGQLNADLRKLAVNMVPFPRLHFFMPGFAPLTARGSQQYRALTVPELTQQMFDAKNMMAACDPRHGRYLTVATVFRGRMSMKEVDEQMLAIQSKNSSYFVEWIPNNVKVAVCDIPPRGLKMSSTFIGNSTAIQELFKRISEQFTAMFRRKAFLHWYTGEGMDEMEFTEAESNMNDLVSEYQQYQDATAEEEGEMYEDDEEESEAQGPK

B1: chimeric KIF5B motor domain and stalk appended with the CAP-Gly domain from KIF13B (other)
chain: MADLAECNIKVMCRFRPLNESEVNRGDKYIAKFQGEDTVVIASKPYAFDRVFQSSTSQEQVYNDCAKKIVKDVLEGYNGTIFAYGQTSSGKTHTMEGKLHDPEGMGIIPRIVQDIFNYIYSMDENLEFHIKVSYFEIYLDKIRDLLDVSKTNLSVHEDKNRVPYVKGCTERFVCSPDEVMDTIDEGKSNRHVAVTNMNEHSSRSHSIFLINVKQENTQTEQKLSGKLYLVDLAGSEKVSKTGAEGAVLDEAKNINKSLSALGNVISALAEGSTYVPYRDSKMTRILQDSLGGNCRTTIVICCSPSSYNESETKSTLLFGQRAKTIKNTVCVNVELTAEQWKKKYEKEKEKNKILRNTIQWLENELNRWRNGETVPIDEQFDKEKANLEAFTVDKDITLTNDKPATAIGVIGNFTDAERRKCEEEIAKLYKQLDDKDEEINQQSQLVEKLKTQMLDQEELLASTRRDQDNMQAELNRLQAENDASKEEVKEVLQALEELAVNYDQKSQEVEDKTKEYELLSDELNQKSATLASIDAELQKLKEMTNHQKKRAAEMMASLLKDLAEIGIAVGNNDVKQPEGTGMIDEEFTVARLYISKMKSEVKTMVKRCKQLESTQTESNKKMEENEKELAACQLRISQHEAKIKSLTEYLQNVEQKKRQLEESVDALSEELVQLRAQEKVHEMEKEHLNKVQTANEVKQAVEQQIQSHRETHQKQISSLRDEVEAKAKLITDLQDQNQKMMLEQERLRVEHEKLKATDQEKSRKLHELTVMQDRREQARQDLKGLEETVAKELQTLHNLRKLFVQDLATRVKKSAEIDSDDTGGSAAQKQKISFLENNLEQLTKVHKQLVRDNADLRCELPKLEKRLRATAERVKALESALKEAKENASRDRKRYQQEVDRIKEAVRSKNMAQALASDSEEADEVPEWLREGEFVTVGAHKTGVVRYVGPADFQEGTWVGVELDLPSGKNDGSIGGKQYFRCNPGYGLLVRPSRVRRATGPVRRRSTGLRLGAPEARRSATLSGSATNLASLTAALAKADRSHKNPENRKSWAS
[1]
  fold binding, tyrosinated over detyrosinated microtubules (ADP): ~16 fold

B2: human KIF13B tail-truncated (a.a. 1–679), C-terminal sfGFP-StrepII (domain or fragment, UniProt Q9NQT8 1-679, looked up)
chain: MGDSKVKVAVRIRPMNRRETDLHTKCVVDVDANKVILNPVNTNLSKGDARGQPKVFAYDHCFWSMDESVKEKYAGQDIVFKCLGENILQNAFDGYNACIFAYGQTGSGKSYTMMGTADQPGLIPRLCSGLFERTQKEENEEQSFKVEVSYMEIYNEKVRDLLDPKGSRQTLKVREHSVLGPYVDGLSKLAVTSYKDIESLMSEGNKSRTVAATNMNEESSRSHAVFKITLTHTLYDVKSGTSGEKVGKLSLVDLAGSERATKTGAAGDRLKEGSNINKSLTTLGLVISALADQSAGKNKNKFVPYRDSVLTWLLKDSLGGNSKTAMVATVSPAADNYDETLSTLRYADRAKHIVNHAVVNEDPNARIIRDLREEVEKLREQLTKAEAMKSPELKDRLEESEKLIQEMTVTWEEKLRKTEEIAQERQKQLESLGISLQSSGIKVGDDKCFLVNLNADPALNELLVYYLKEHTLIGSANSQDIQLCGMGILPEHCIIDITSEGQVMLTPQKNTRTFVNGSSVSSPIQLHHGDRILWGNNHFFRLNLPKKKKKAEREDEDQDPSMKNENSSEQLDVDGDSSSEVSSEVNFNYEYAQMEVTMKALGSNDPMQSILNSLEQQHEEEKRSALERQRLMYEHELEQLRRRLSPEKQNCRSMDRFSFHSPSAQQRLRQWAEEREATL
notes: KIF13B, human, a.a; 1–679; truncated after the predicted second coiled-coil, within the MBS domain; also called KIF13B^Δtail; KIF13^Δtail; source: Sf9 insect cells (baculovirus), purified (Strep-Tactin XT, gel filtration); not shown: sfGFP, C-terminal, kept
[2]
  binding result: binds
[3]
  binding result: binds

B3: KIF13B K414A, full-length human KIF13B with the point mutation K414A, C-terminal sfGFP-StrepII (natural protein, UniProt Q9NQT8 1-1826, looked up)
chain: MGDSKVKVAVRIRPMNRRETDLHTKCVVDVDANKVILNPVNTNLSKGDARGQPKVFAYDHCFWSMDESVKEKYAGQDIVFKCLGENILQNAFDGYNACIFAYGQTGSGKSYTMMGTADQPGLIPRLCSGLFERTQKEENEEQSFKVEVSYMEIYNEKVRDLLDPKGSRQTLKVREHSVLGPYVDGLSKLAVTSYKDIESLMSEGNKSRTVAATNMNEESSRSHAVFKITLTHTLYDVKSGTSGEKVGKLSLVDLAGSERATKTGAAGDRLKEGSNINKSLTTLGLVISALADQSAGKNKNKFVPYRDSVLTWLLKDSLGGNSKTAMVATVSPAADNYDETLSTLRYADRAKHIVNHAVVNEDPNARIIRDLREEVEKLREQLTKAEAMKSPELKDRLEESEKLIQEMTVTWEEALRKTEEIAQERQKQLESLGISLQSSGIKVGDDKCFLVNLNADPALNELLVYYLKEHTLIGSANSQDIQLCGMGILPEHCIIDITSEGQVMLTPQKNTRTFVNGSSVSSPIQLHHGDRILWGNNHFFRLNLPKKKKKAEREDEDQDPSMKNENSSEQLDVDGDSSSEVSSEVNFNYEYAQMEVTMKALGSNDPMQSILNSLEQQHEEEKRSALERQRLMYEHELEQLRRRLSPEKQNCRSMDRFSFHSPSAQQRLRQWAEEREATLNNSLMRLREQIVKANLLVREANYIAEELDKRTEYKVTLQIPASSLDANRKRGSLLSEPAIQVRRKGKGKQIWSLEKLDNRLLDMRDLYQEWKECEEDNPVIRSYFKRADPFYDEQENHSLIGVANVFLESLFYDVKLQYAVPIINQKGEVAGRLHVEVMRLSGDVGERIAGGDEVAEVSFEKETQENKLVCMVKILQATGLPQHLSHFVFCKYSFWDQQEPVIVAPEVDTSSSSVSKEPHCMVVFDHCNEFSVNITEDFIEHLSEGALAIEVYGHKINDPRKNPALWDLGIIQAKTRSLRDRWSEVTRKLEFWVQILEQNENGEYCPVEVISAKDVPTGGIFQLRQGQSRRVQVEVKSVQESGTLPLMEECILSVGIGCVKVRPLRAPRTHETFHEEEEDMDSYQDRDLERLRRKWLNALTKRQEYLDQQLQKLVSKRDKTEDDADREAQLLEMRLTLTEERNAVMVPSAGSGIPGAPAEWTPVPGMETHIPVIFLDLNADDFSSQDNLDDPEAGGWDATLTGEEEEEFFELQIVKQHDGEVKAEASWDSAVHGCPQLSRGTPVDERLFLIVRVTVQLSHPADMQLVLRKRICVNVHGRQGFAQSLLKKMSHRSSIPGCGVTFEIVSNIPEDAQGVEEREALARMAANVENPASADSEAYIEKYLRSVLAVENLLTLDRLRQEVAVKEQLTGKGKLSRRSISSPNVNRLSGSRQDLIPSYSLGSNKGRWESQQDVSQTTVSRGIAPAPALSVSPQNNHSPDPGLSNLAASYLNPVKSFVPQMPKLLKSLFPVRDEKRGKRPSPLAHQPVPRIMVQSASPDIRVTRMEEAQPEMGPDVLVQTMGAPALKICDKPAKVPSPPPVIAVTAVTPAPEAQDGPPSPLSEASSGYFSHSVSTATLSDALGPGLDAAAPPGSMPTAPEAEPEAPISHPPPPTAVPAEEPPGPQQLVSPGRERPDLEAPAPGSPFRVRRVRASELRSFSRMLAGDPGCSPGAEGNAPAPGAGGQALASDSEEADEVPEWLREGEFVTVGAHKTGVVRYVGPADFQEGTWVGVELDLPSGKNDGSIGGKQYFRCNPGYGLLVRPSRVRRATGPVRRRSTGLRLGAPEARRSATLSGSATNLASLTAALAKADRSHKNPENRKSWAS
notes: kinesin KIF13B, human, full length, point mutant K414A; molar ratio about 1:5 (mScarlet (I): sfGFP); also called KIF13BK414A-sfGFP; HsKIF13BK414A-sfGFP-StrepII; source: Sf9, purified (Strep-Tactin XT, gel filtration); for the two-colour assay Sf9 co-infected with the sfGFP-StrepII and the mScarlet-StrepII viruses; not shown: sfGFP, C-terminal, kept
[4]
  binding result: binds
